Key:
[1] = biological target: Contiguous 8mer peptides of LY75 protein spanning residues 216 to 1666 of the full length LY75 protein (peptide microarray); test: peptide microarray, 1 ug/mL LY75_A1, anti-human IgG Alexa 647, scan at 635 nm
EVKDCRSF = biological target: T1, EVKDCRSF; test: peptide microarray, 1 µg/mL LY75_A1, anti-human IgG Alexa 647
T1 peptide: EVKDCRSF
Experimental: (§1) The chip comprised three panels such that the experiment was performed in triplicate. […] The binding assay was performed under the following conditions:—The microarray comprising the contiguous peptides in triplicate was washed with 1 mL of binding buffer at 4° C. for 20 min. […] The array was again washed with 0.5 mL of washing buffer at 4° C. for 30 min.

RSFKALSI = biological target: T2, RSFKALSI; test: as above
T2 peptide: RSFKALSI
Experimental: as §1

SCYKVFHA = biological target: T3, SCYKVFHA; test: as above
T3 peptide: SCYKVFHA
Experimental: as §1

CYKVFHAE = biological target: T4, CYKVFHAE; test: as above
T4 peptide: CYKVFHAE
Experimental: as §1

SLSCYKVF = biological target: T5, SLSCYKVF; test: as above
T5 peptide: SLSCYKVF
Experimental: as §1

LSCYKVFH = biological target: T6, LSCYKVFH; test: as above
T6 peptide: LSCYKVFH
Experimental: as §1

RRGWHFYD = biological target: T7, RRGWHFYD; test: as above
T7 peptide: RRGWHFYD
Experimental: as §1

DDHFTYSR = biological target: T8, DDHFTYSR; test: as above
T8 peptide: DDHFTYSR
Experimental: as §1

DHFTYSRY = biological target: T9, DHFTYSRY; test: as above
T9 peptide: DHFTYSRY
Experimental: as §1

HFTYSRYP = biological target: T10, HFTYSRYP; test: as above
T10 peptide: HFTYSRYP
Experimental: as §1

FTYSRYPW = biological target: T11, FTYSRYPW; test: as above
T11 peptide: FTYSRYPW
Experimental: as §1

YSRYPWHR = biological target: T12, YSRYPWHR; test: as above
T12 peptide: YSRYPWHR
Experimental: as §1

SRYPWHRF = biological target: T13, SRYPWHRF; test: as above
T13 peptide: SRYPWHRF
Experimental: as §1

RYPWHRFP = biological target: T14, RYPWHRFP; test: as above
T14 peptide: RYPWHRFP
Experimental: as §1

YPWHRFPV = biological target: T15, YPWHRFPV; test: as above
T15 peptide: YPWHRFPV
Experimental: as §1

WHRFPVTF = biological target: T16, WHRFPVTF; test: as above
T16 peptide: WHRFPVTF
Experimental: as §1

HRFPVTFG = biological target: T17, HRFPVTFG; test: as above
T17 peptide: HRFPVTFG
Experimental: as §1

VKYLNNLY = biological target: T18, VKYLNNLY; test: as above
T18 peptide: VKYLNNLY
Experimental: as §1

YLNNLYKI = biological target: T19, YLNNLYKI; test: as above
T19 peptide: YLNNLYKI
Experimental: as §1

LNNLYKII = biological target: T20, LNNLYKII; test: as above
T20 peptide: LNNLYKII
Experimental: as §1

NNLYKIIP = biological target: T21, NNLYKIIP; test: as above
T21 peptide: NNLYKIIP
Experimental: as §1

NLYKIIPK = biological target: T22, NLYKIIPK; test: as above
T22 peptide: NLYKIIPK
Experimental: as §1

LYKIIPKT = biological target: T23, LYKIIPKT; test: as above
T23 peptide: LYKIIPKT
Experimental: as §1

YKIIPKTL = biological target: T24, YKIIPKTL; test: as above
T24 peptide: YKIIPKTL
Experimental: as §1

KIIPKTLT = biological target: T25, KIIPKTLT; test: as above
T25 peptide: KIIPKTLT
Experimental: as §1

IIPKTLTW = biological target: T26, IIPKTLTW; test: as above
T26 peptide: IIPKTLTW
Experimental: as §1

IPKTLTWH = biological target: T27, IPKTLTWH; test: as above
T27 peptide: IPKTLTWH
Experimental: as §1

PKTLTWHS = biological target: T28, PKTLTWHS; test: as above
T28 peptide: PKTLTWHS
Experimental: as §1

KTLTWHSA = biological target: T29, KTLTWHSA; test: as above
T29 peptide: KTLTWHSA
Experimental: as §1

TLTWHSAK = biological target: T30, TLTWHSAK; test: as above
T30 peptide: TLTWHSAK
Experimental: as §1

KKLSRLTY = biological target: T31, KKLSRLTY; test: as above
T31 peptide: KKLSRLTY
Experimental: as §1

KLSRLTYS = biological target: T32, KLSRLTYS; test: as above
T32 peptide: KLSRLTYS
Experimental: as §1

LSRLTYSS = biological target: T33, LSRLTYSS; test: as above
T33 peptide: LSRLTYSS
Experimental: as §1

B1: LY75_A1 monoclonal antibody (antibody, V domains shown)
VH: EVQLVESGGGLVKPGGSLRLSCAASGFTYSNAWMSWVRQAPGKGLEWVGRIKSKTDGGTTDYAAPVQGRFTISRDDSKNTLYLQMNSLKTEDTAVYYCTIFGVVSFDYWGQGTLVTVSS
VL: DVQMTQSPSSLSASVGDRVTITCRASQSISDYLSWYQQRPGKAPNLLIYAASNLKTGVPSRFSGSGSGTDFTLTISTLQPEDFATYYCQQSYRSPWTFGQGTKVEIKR
notes: also called LY75A1 antibody; LY75_A1 antibody
25000: maximum signal intensity (signal intensity (scale 1-65535)) [1]
no binding (tested: 1 µg/mL): binding result (RSFKALSI) | binding result (CYKVFHAE) | binding result (FTYSRYPW) | binding result (NNLYKIIP) | binding result (NLYKIIPK) | binding result (LYKIIPKT) | binding result (YKIIPKTL) | binding result (KIIPKTLT) | binding result (IIPKTLTW) | binding result (IPKTLTWH) | binding result (PKTLTWHS) | binding result (KTLTWHSA) | binding result (TLTWHSAK)
885: average signal for all spots on the array (signal intensity (scale 1-65535)) [1]
binds: binding result (EVKDCRSF) | binding result (SCYKVFHA) | binding result (SLSCYKVF) | binding result (LSCYKVFH) | binding result (RRGWHFYD) | binding result (DDHFTYSR) | binding result (DHFTYSRY) | binding result (HFTYSRYP) | binding result (YSRYPWHR) | binding result (SRYPWHRF) | binding result (RYPWHRFP) | binding result (YPWHRFPV) | binding result (WHRFPVTF) | binding result (HRFPVTFG) | binding result (VKYLNNLY) | binding result (YLNNLYKI) | binding result (LNNLYKII) | binding result (KKLSRLTY) | binding result (KLSRLTYS) | binding result (LSRLTYSS)
